# From US11530263B2, “IL-18 binding protein (IL-18BP) in inflammatory diseases” (AB2 BIO SA, priority 2013, dated 2022)
# B1: 109A6: monoclonal anti-IL-18 antibody; VH SEQ ID NO: 13, VK SEQ ID NO: 14 (antibody, V domains shown)
# VH: EVQLQQSGAELVKPGASVKLSCTASGFKIKDTYIHWVIQRPAQGLEWIGRIDPANGNTIYGSKFQGKATLTADTSSNTAYIHLSSLTSGDSAVYYCAGYVWFAYWGQGTLVTVSA
# VL: DVVMTQVPLSLPVSLGDQASISCRSSQRLVHSNGNTYLHWFLQKPGQSPKLLIYTVSNRFSGVPDRFSGSGSGTDFTLKISRVEAEDLGVYFCSQSTLVPWTFGGGTKLEIK
# modifications: Antibody 109A6 VH sequence; Antibody 109A6 VK sequence
# B2: 131B4: monoclonal anti-IL-18 antibody; VH SEQ ID NO: 18, VK SEQ ID NO: 19 (antibody, V domains shown)
# VH: EVQVQQSGAELVKPGASVKLSCTASGFKIKDTYIHWLKQRPEQGLEWIGRIDPANGNTIYGSKFQGKATITADTSSNTAYIQLSSLTSGDTAVYFCAGYVWFAYWGQGTLVTVSA
# VL: DAVLTQTPLSLPVSLGDQASISCTSSQSLVHSNGNTYLHWYLQKPGQSPKLLIYKVSDRFSGVPDRFSGSGSGTDFTLMITRVEAEDLGVYFCSQSSLVPWTFGGGTKLEVK
# modifications: Antibody 131B4 VH sequence; Antibody 131B4 VK sequence
# B3: 107C6: monoclonal anti-IL-18 antibody; VH SEQ ID NO: 9, VK SEQ ID NO: 10 (antibody, V domains shown)
# VH: QIQLVQSGPELKKPGETVKLSCRASGYTFTNYGMNWVKQAPGKGLKWMGWINTYSGVPTYADDFKGQFAFSLETSAATAFLQINNLKDEDTATYFCAREGYSTTRSMDYWGQGTSVTVSS
# VL: DIVMSQSPSSLAVSAGEKVTMSCKSSQSLLDSRTRKNYLVWYQQKPGQSPKLLIYWASTRGSGVPDRFTGSGSGTDFTLTISSVQAEDLAVYYCKQSYNLRTFGGGTKLEIK
# modifications: Antibody 107C6 VH sequence; Antibody 107C6 VK sequence
# B4: 108F8: monoclonal anti-IL-18 antibody; VH SEQ ID NO: 11, VK SEQ ID NO: 12 (antibody, V domains shown)
# VH: QIQLVQSGPDSKKPGETVKLSCRASGYTFTNYGMNWVKQAPGKGLKWMGWINTYSGVPTYADDFKGQFAFSLETSAATAFLQINNLKDEDTATYFCAREGYSTTRSMDYWGQGTSVTVSS
# VL: DIVMSQSPSSLAVSAGEKVTMSCKSSQSLLDSRTRKNYLVWYQQKPGQSPKLLIYWASTRGSGVPDRFTGSGSGTDFTLTISSVQAEDLAVYYCKQSYNLRTFGGGTKLEIK
# modifications: Antibody 108F8 VH sequence; Antibody 108F8 VK sequence
# B5: 132H4: monoclonal anti-IL-18 antibody; VH SEQ ID NO: 23, VK SEQ ID NO: 24 (antibody, V domains shown)
# VH: EVKLVESGGGLVKPGGSLKLSCAASGFTFSNYAMSWVRQNPAKRLEWVATISSGGANIYYPDSVKGRFIISRDNARNTLYLQMSSLRSEDTAMYYCARGDYFNHFWFAYWGQGTLVTVSA
# VL: DVLMTQTPLSLPVSLGDQASISCRSSQSIVHSNGNTYLEWYLQKPGQSPKFLIYKVSNRFSGVPDRFSGSGSGTDFTLKINRVEAEDLGIYYCFQGSHVPWTFGGGTKLEIK
# modifications: Antibody 132H4 VH sequence; Antibody 132H4 VK sequence
# Key:
# [1] = biological target: T1, IL-18 previously complexed to IL-18BP (Homo sapiens, UniProt Q14116); assay: Luminex screening: monoclonal antibody binding on IL-18 previously complexed to IL-18BP; details: after third screening step, mRNA sequencing and clone dilution
# T1 sequence (Q14116 37-193): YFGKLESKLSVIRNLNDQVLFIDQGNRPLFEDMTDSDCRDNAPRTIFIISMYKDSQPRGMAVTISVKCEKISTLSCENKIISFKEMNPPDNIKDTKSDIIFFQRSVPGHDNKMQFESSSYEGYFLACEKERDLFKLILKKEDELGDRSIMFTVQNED
# T1 sequence (O95998 31-194 partner): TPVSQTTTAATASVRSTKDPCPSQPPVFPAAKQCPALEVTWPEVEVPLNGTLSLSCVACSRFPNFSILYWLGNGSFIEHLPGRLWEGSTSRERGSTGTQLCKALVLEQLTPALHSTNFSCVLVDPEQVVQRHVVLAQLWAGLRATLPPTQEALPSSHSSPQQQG
# From the text: (§1) Mice were vaccinated aginst human interleukin-18 using a technology allowing immunization with properly folded proteins. Prior to immunization, genetically modified mice were selected for major histocompatibility complexes supposedly sensitive to IL-18 surface area epitopes binding IL-18BP. Following immunization, B cells were isolated from spleen and hybridized following standard hybridoma technology. Hybridoma were sorted onto microplates and then tested for expression of monoclonal anti-IL-18 antibodies targeting IL-18 epitopes included in IL-18BP binding site. The screening was performed in 3 sequential and selective steps: • First step. […] Potential antibodies targeting IL-18 on IL-18BP binding site were rescreened in competition with IL-18BP. For this, monoclonal antibodies were bound to Luminex beads carrying IL-18. The complex was then exposed to biotinylated IL-18BP in order to identify interference to previously identified anti-IL-18 antibodies (see Table 1, Column #2). […] A third screening program was undertaken with Luminex beads linked to IL-18BP and then complexed to interleukin-18, assuring the presentation of properly folded recombinant IL-18 to positive antibody candidates.
# [2] = biological target: T2, IL-18 previously complexed to monoclonal antibody (Homo sapiens, UniProt Q14116); assay: Luminex screening: biotinylated IL-18BP binding on IL-18 previously complexed to monoclonal antibody; details: Column #2
# T2 sequence (Q14116 37-193): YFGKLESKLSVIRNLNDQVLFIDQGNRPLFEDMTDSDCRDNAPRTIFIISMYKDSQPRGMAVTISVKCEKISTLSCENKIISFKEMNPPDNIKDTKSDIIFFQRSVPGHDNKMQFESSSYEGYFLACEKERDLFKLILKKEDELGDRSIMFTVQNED
# From the text: as §1
# human interleukin-18 = biological target: T3, human interleukin-18 (Homo sapiens, UniProt Q14116); assay: Luminex screening: monoclonal antibodies binding on IL-18; details: IL-18 on Luminex beads
# T3 sequence (Q14116 37-193): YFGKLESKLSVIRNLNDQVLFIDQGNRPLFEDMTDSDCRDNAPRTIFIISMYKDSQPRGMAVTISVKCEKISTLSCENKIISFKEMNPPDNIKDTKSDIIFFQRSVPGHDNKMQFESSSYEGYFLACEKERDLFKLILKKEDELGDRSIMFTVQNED
# From the text: as §1
molecule,measurement,setting,value
B1,Binding to IL-18 on the IL-18BP binding site,[1],confirmed to bind to IL-18 on the IL-18BP binding site
same,"IL-18BP binding on IL-18 previously complexed to monoclonal antibody, Fluorescence intensity",[2],913
same,"Monoclonal antibodies binding on IL-18, Fluorescence intensity",human interleukin-18,25 848
B2,Binding to IL-18 on the IL-18BP binding site,[1],confirmed to bind to IL-18 on the IL-18BP binding site
same,"IL-18BP binding on IL-18 previously complexed to monoclonal antibody, Fluorescence intensity",[2],1 656
same,"Monoclonal antibodies binding on IL-18, Fluorescence intensity",human interleukin-18,24 838
B3,Binding to IL-18 on the IL-18BP binding site,[1],confirmed to bind to IL-18 on the IL-18BP binding site
same,"IL-18BP binding on IL-18 previously complexed to monoclonal antibody, Fluorescence intensity",[2],1 389
same,"Monoclonal antibodies binding on IL-18, Fluorescence intensity",human interleukin-18,26 250
B4,Binding to IL-18 on the IL-18BP binding site,[1],confirmed to bind to IL-18 on the IL-18BP binding site
same,"IL-18BP binding on IL-18 previously complexed to monoclonal antibody, Fluorescence intensity",[2],1 292
same,"Monoclonal antibodies binding on IL-18, Fluorescence intensity",human interleukin-18,25 126
B5,Binding to IL-18 on the IL-18BP binding site,[1],confirmed to bind to IL-18 on the IL-18BP binding site
same,"IL-18BP binding on IL-18 previously complexed to monoclonal antibody, Fluorescence intensity",[2],1 488
same,"Monoclonal antibodies binding on IL-18, Fluorescence intensity",human interleukin-18,23 839
